Assay results taken from article PMC5921052.

Molecular target: Hsp90 yeast homologue (Hsc82) (yeast) (UniProt P15108)
Sequence of UniProt P15108 (P15108 whole entry): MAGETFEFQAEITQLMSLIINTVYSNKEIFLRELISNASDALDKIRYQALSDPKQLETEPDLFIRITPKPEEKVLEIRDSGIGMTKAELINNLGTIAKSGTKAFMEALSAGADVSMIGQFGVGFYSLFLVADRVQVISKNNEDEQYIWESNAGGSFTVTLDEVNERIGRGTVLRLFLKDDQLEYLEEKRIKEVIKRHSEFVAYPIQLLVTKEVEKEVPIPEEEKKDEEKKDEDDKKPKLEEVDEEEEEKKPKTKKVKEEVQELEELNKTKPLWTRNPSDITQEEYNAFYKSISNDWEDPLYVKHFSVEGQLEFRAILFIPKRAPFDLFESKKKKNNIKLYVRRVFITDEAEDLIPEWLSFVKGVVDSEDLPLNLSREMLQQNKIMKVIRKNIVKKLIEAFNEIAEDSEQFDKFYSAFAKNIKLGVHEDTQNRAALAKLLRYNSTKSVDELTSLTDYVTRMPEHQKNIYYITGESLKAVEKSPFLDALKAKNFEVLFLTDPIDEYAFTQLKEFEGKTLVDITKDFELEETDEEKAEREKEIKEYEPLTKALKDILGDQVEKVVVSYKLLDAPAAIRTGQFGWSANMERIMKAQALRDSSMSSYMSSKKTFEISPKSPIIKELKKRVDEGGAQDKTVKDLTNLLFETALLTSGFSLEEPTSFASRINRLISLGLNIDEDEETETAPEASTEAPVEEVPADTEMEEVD

## model client protein Δ131Δ (domain or fragment)
  other: 1.8 fold
